Results published in US20180022808A1.

Target: recombinant Phl p 2 (Biomay AG) (UniProt P43214)
Test: flow cytometry scatter plot on 16HBE14o- cells pre-incubated with 1 µg of the conjugate at ratio 1:0.25, then 1 µg Phl p 2, rabbit anti-Phl p 2 (FIG. 3 C)

Sequence of UniProt P43214 (P43214 27-122 limits assumed): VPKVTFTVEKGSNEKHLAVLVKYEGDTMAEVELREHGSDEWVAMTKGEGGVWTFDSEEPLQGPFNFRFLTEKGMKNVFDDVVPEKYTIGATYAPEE

- percent of cells with Phl p 2 bound to their cell surface: 50%
Substance: P2/ICAM1 bi-specific antibody conjugate (streptavidin-conjugated Phl p 2-specific human IgG1 coupled to biotin-labeled ICAM1-specific mouse IgG1) (from UniProt P22629 37-163) (bispecific antibody)
